Results as given in the supplement of paper PMC10567573.

B1: ZC3H15 (parent)
chain: RKADFKAGKALVISGREVFEFRPE
B2: COX4I1 (parent)
chain: FDKEWVAKQTKRMLDMKVNPIQGL

Variants of: B1
Test: protein stability index of a GFP-peptide fusion (GPS, HEK-293T) (PSI 1-6); higher = more stable
Settings: c terminus: a fixed tail appended
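Note: lentivirally expressed fusions sorted by FACS into six bins by GFP to DsRed ratio, PSI derived from sequencing read proportions per bin multiplied by bin number.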

Protein stability index: each site, then its substitutions
L11: V 3.11, D 3.69, C 3.09, R 2.95, K 3.77, M 2.84, S 3.69, F 2.65, E 3.78, T 3.76, N 4.1, P 3.54, Y 2.29
V18: M 2.8, I 2.95, S 3.34, G 3.37, K 3.56, R 3.58, P 3.05, E 3.89, N 3.61, Q 3.46, W 2.86, A 3.33, T 3.32, H 3.22
A7: T 3.12, L 2.08, H 2.75, R 2.85, C 2.35, V 2.91, I 2.66, F 2.21, P 3.2, G 2.86, W 1.71, M 2.46, D 3.12, Y 2.18
G15: H 2.2, A 2.64, R 2.73, Y 1.85, S 3.18, E 3.65, I 2.37, Q 2.92, F 2.27, N 3.4, W 1.37, D 3.38, K 3.14, C 2.07
R16: L 2.42, K 3.38, E 3.7, Y 1.54, T 2.99, W 1.92, G 2.99, D 3.69, Q 3.61, P 3.27, A 2.71, H 2.98, M 2.08
I13: S 3.8, T 3.21, C 3.2, L 3.55, M 3.26, A 3.86, Q 3.72, E 4.28, F 2.32, K 3.79, H 3.13, V 3.51
K2: L 1.76, I 1.92, W 1.94, M 2.33, E 2.81, N 3.24, R 2.78, D 3.43, H 2.46, V 2.49, P 2.75, Q 3.23, C 1.85
R1: N 3.23, Q 2.99, Y 2.81, S 2.9, I 1.58, M 2.71, T 3.22, W 2.53, P 3.19, E 3.5, H 3.44, F 2.01, K 3.32
R22: H 2.72, F 2.98, A 3, K 3.24, P 3.25, L 2.35, T 3.03, C 2.24, M 3.54, D 3.72, Q 3.83, W 2.39, G 3.4, E 3.53, V 2.78, N 3.07
F19: M 3.43, R 4.24, K 3.47, H 4.13, C 3.76, G 3.7, P 4.08, E 4.23, Y 2.75, N 4.05, V 3.25, Q 3.63
F21: W 2.85, L 2.82, C 3.78, E 4.46, Y 3.21, K 3.58, M 3.29, N 3.73, G 4.2, R 3.48, I 2.68, A 3.05
D4: H 2.15, Q 2.73, M 2.54, N 2.03, I 2.27, L 1.91, A 2.36, K 2.53, F 1.98, P 2.36, T 1.98, V 2.2, W 1.73, S 2.55
S14: V 1.43, D 3.82, I 1.93, M 2.49, L 1.57, E 3.67, Q 2.81, C 1.21, W 1.87, N 2.66, T 2.98, Y 2.39, P 3.44, H 3.31, A 2.86
E20: N 2.81, D 3.37, K 2.68, Y 1.66, F 1.96, L 2.51, A 2.5, C 2.68, M 2.27, G 3.1, Q 2.74, W 1.61, R 3.14
A3: L 2.57, I 2.71, R 2.85, W 2.51, V 2.61, N 3.11, F 2.23, H 2.44, C 2.09, P 2.95, Q 3.06, S 2.68, Y 2.52, D 3.7, E 3.77
P23: C 2.42, Q 3.31, W 1.24, S 3.44, H 2.62, E 3.38, V 1.94, K 3.35, R 2.73, D 3.82, M 2.09, N 3.53
V12: S 3.47, I 2.85, L 2.42, N 3.93, A 3.23, Q 3.15, G 3.17, W 2.4, M 3.26, Y 2.73, C 2.89
K9: P 2.78, Y 1.05, V 2.48, E 3.11, M 2.31, A 3.02, G 2.28, N 3.16, R 2.31, C 2.33, I 1.57, S 3.16, Q 2.65, T 3.04
E24: I 1.94, F 1.85, R 2.43, C 2.22, Y 2.17, T 2.52, A 2.69, S 2.78, K 2.31, G 2.12, Q 2.84, H 2.18, M 2
F5: P 3.25, G 4.05, I 2.94, E 4.18, H 3.77, M 2.85, W 2.48, Q 3.8, N 3.38, K 3.47, S 3.77, D 3.77, T 3.59, A 3.91
E17: Y 2.19, C 1.71, S 2.06, T 1.75, P 2.66, F 2.17, H 1.9, K 2.08, W 2.12, V 2.25, N 2.57, D 2.88, I 1.64
A10: L 2.09, V 2.49, C 2.12, H 2.75, I 2.09, F 1.53, S 2.86, Y 1.92, M 2.09, K 2.47, R 3.09, D 3.5, G 2.86, N 3.16, T 2.88
G8: D 3.31, R 2.52, L 1.92, W 1.79, F 1.93, P 2.65, S 2.7, K 3.24, V 2.16, I 2.23, Q 2.85, H 2.66
K6: M 2.36, V 3.03, Y 2.87, R 2.29, H 2.6, T 2.99, L 2.29, A 2.71, I 2.42, P 2.72, W 2.4, D 3.75, Q 2.44, E 3.24

Variants of: B2
Test: as above
Settings: c terminus: a fixed tail appended

Protein stability index, by site and new letter:
V18: F 1.42
V6: Q 2.83
G23: V 1.59
K8: G 1.87
M13: T 1.82, G 1.64
M16: F 1.62
K3: D 2.57
D15: F 1.84
K11: C 2.77, P 2.32, S 2.28, A 1.84
